According to patent US20200010571A1 (Janssen / Centocor, published 2020):

T1: cynomolgus IL-17A (cynomolgus, UniProt Q16552 24-155 (human entry), limits assumed)
T1 chain: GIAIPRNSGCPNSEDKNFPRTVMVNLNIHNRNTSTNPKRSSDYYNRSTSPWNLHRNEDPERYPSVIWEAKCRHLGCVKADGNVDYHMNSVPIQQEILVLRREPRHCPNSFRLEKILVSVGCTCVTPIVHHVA


Tests used:
[1] = target: T2, human IL-17A (recombinant) (human, UniProt Q16552 24-155); assay: cell-based or functional assay
[2] = target: T3, recombinant human IL-17A/F heterodimer (human, UniProt Q16552 24-155; Q96PD4 31-163); assay: cell-based or functional assay
[3] = target: T2, human IL-17A (recombinant); assay: cell-based or functional assay; remark: listed apart in the source
cynomolgus IL-17A [4] = target: T1, cynomolgus IL-17A; assay: cell-based or functional assay
[5] = target: T2, human IL-17A (recombinant); assay: competition ELISA: biotinylated rhIL-17A binding to plate-coated rhIL-17RA-Fc; Experiment 2; 95% CI 0.04003-0.04542
[6] = target: T2, human IL-17A (recombinant); assay: competition ELISA: biotinylated rhIL-17A binding to plate-coated rhIL-17RA-Fc; Experiment 1; 95% CI 0.03759-0.04316
[7] = target: T2, human IL-17A (recombinant); assay: cell-based or functional assay; remark: listed apart in the source
cynomolgus IL-17A [8] = target: T1, cynomolgus IL-17A; assay: cell-based or functional assay
[9] = target: T3, recombinant human IL-17A/F heterodimer; assay: cell-based or functional assay; remark: listed apart in the source
[10] = target: T2, human IL-17A (recombinant); assay: competition ELISA: biotinylated rhIL-17A binding to plate-coated rhIL-17RA-Fc; Experiment 3; 95% CI 0.07179-0.08047
[11] = target: T2, human IL-17A (recombinant); assay: cell-based or functional assay; remark: listed apart in the source
[12] = target: T2, human IL-17A (recombinant); assay: competition ELISA: biotinylated rhIL-17A binding to plate-coated rhIL-17RA-Fc; Experiment 3; 95% CI 0.06727-0.07636
[13] = target: T2, human IL-17A (recombinant); assay: competition ELISA: biotinylated rhIL-17A binding to plate-coated rhIL-17RA-Fc; Experiment 1; 95% CI 0.03924-0.04274
[14] = target: T2, human IL-17A (recombinant); assay: competition ELISA: biotinylated rhIL-17A binding to plate-coated rhIL-17RA-Fc; Experiment 2; 95% CI 0.02829-0.03326

| IC50 (µg/mL); Inhibition of native IL-17A mediated GROα production by NHDF; Experiment 1 [1] | IC50 (µg/mL); Inhibition of native IL-17A mediated GROα production by NHDF; Experiment 2 [1] | IC50 (µg/mL); Inhibition of native IL-17A mediated GROα production by NHDF; Experiment 3 [1] | IC50 (µg/mL); Inhibition of IL-17A/F mediated GROα production by NHDF; Experiment 1 [2] | IC50 (µg/mL); Inhibition of IL-17A/F mediated GROα production by NHDF; Experiment 2 [2] | IC50 (µg/mL); Inhibition of IL-17A/F mediated GROα production by NHDF; Experiment 3 [2] | IC50 (µg/mL); Inhibition of native IL-17A mediated IL-6 production by NHDF; Experiment 1 [3] | IC50 (µg/mL); Inhibition of native IL-17A mediated IL-6 production by NHDF; Experiment 2 [3] | IC50 (µg/mL); Inhibition of native IL-17A mediated IL-6 production by NHDF; Experiment 3 [3] | IC50 (µg/mL); Inhibition of cyno IL-17A mediated IL-6 production by NHDF; Experiment 3 (cynomolgus IL-17A [4]) | IC50 (µg/mL); Inhibition of cyno IL-17A mediated GROα production by NHDF; Experiment 3 (cynomolgus IL-17A [8]) | IC50 (µg/mL); Inhibition of IL-17A/F mediated IL-6 production by NHDF; Experiment 1 [9] | IC50 (µg/mL); Inhibition of IL-17A/F mediated IL-6 production by NHDF; Experiment 2 [9] | IC50 (µg/mL); Inhibition of IL-17A/F mediated IL-6 production by NHDF; Experiment 3 [9] | Binder | further results |
| --- | --- | --- | --- | --- | --- | --- | --- | --- | --- | --- | --- | --- | --- | --- | --- |
| 0.0207 µg/mL | 0.0327 µg/mL | 0.0236 µg/mL | 0.473 µg/mL | 0.117 µg/mL | 0.317 µg/mL | 0.0254 µg/mL | 0.0336 µg/mL | 0.0242 µg/mL | 0.0248 µg/mL | 0.0349 µg/mL | 0.714 µg/mL | 0.243 µg/mL | 0.99 µg/mL | mAb 4782 (parental anti-IL-17A antibody, IgG1, F405L) (antibody) heavy: not shown light: QSVLTQPPSVSVAPGQTARISCSGDNLGDKYANWYQQKPGQAPVLVIYDDIDRPSGIPERFSGSNSGNTATLTISGTQAEDEADYYCGSYDFFLGMIVFGGGTKLTVLGQPKAAPSVTLFPPSSEELQANKATLVCLISDFYPGAVTVAWKADSSPVKAGVETTTPSKQSNNKYAASSYLSLTPEQWKSHRSYSCQVTHEGSTVEKTVAPTECS | IC50 (µg/mL); Inhibition of cyno IL-17A mediated IL-6 production by NHDF; Experiment 2 (cynomolgus IL-17A [4]): 0.0437 µg/mL; IC50 [5]: 0.0426 µg/mL; IC50 [6]: 0.0403 µg/mL; IC50 (nM); Inhibition of rhTNF-α and IL-17A induced GROα secretion from RA-FLSs from three donors; Donor 1 (ST1320) [7]: 0.25 nM; IC50 (nM); Inhibition of rhTNF-α and IL-17A induced GROα secretion from RA-FLSs from three donors; Donor 2 (ST1349) [7]: 0.12 nM; IC50 (nM); Inhibition of rhTNF-α and IL-17A induced GROα secretion from RA-FLSs from three donors; Donor 3 (ST1359) [7]: 0.14 nM; IC50 (µg/mL); Inhibition of cyno IL-17A mediated GROα production by NHDF; Experiment 1 (cynomolgus IL-17A [8]): 0.0235 µg/mL; IC50 (µg/mL); Inhibition of cyno IL-17A mediated GROα production by NHDF; Experiment 2 (cynomolgus IL-17A [8]): 0.0466 µg/mL; IC50 [10]: 0.076 µg/mL; IC50 (nM); Inhibition of rhTNF-α and IL-17 induced IL-6 secretion from RA-FLSs; Donor 1 (ST1320) [11]: 0.34 nM; IC50 (nM); Inhibition of rhTNF-α and IL-17 induced IL-6 secretion from RA-FLSs; Donor 2 (ST1349) [11]: 0.22 nM; IC50 (nM); Inhibition of rhTNF-α and IL-17 induced IL-6 secretion from RA-FLSs; Donor 3 (ST1359) [11]: 0.25 nM |
| 0.0198 µg/mL | 0.0265 µg/mL | 0.0215 µg/mL | 0.725 µg/mL | 0.393 µg/mL | 0.403 µg/mL | 0.0214 µg/mL | 0.0242 µg/mL | 0.0232 µg/mL | 0.0326 µg/mL | 0.0271 µg/mL | 0.344 µg/mL | 0.269 µg/mL | 0.545 µg/mL | mAb 7206 (parental anti-IL-17A antibody, IgG1, YTE) (antibody) heavy: QVQLLESGGGLVQPGGSLRLSCAASGFTFSSYAMSWVRQAPGKGLEWVSTISLTSGFTYYADSVKGRFTISRDNSKNTLYLQMNSLRAEDTAVYYCARQLTLDVWGQGTLVTVSSASTKGPSVFPLAPSSKSTSGGTAALGCLVKDYFPEPVTVSWNSGALTSGVHTFPAVLQSSGLYSLSSVVTVPSSSLGTQTYICNVNHKPSNTKVDKKVEPKSCDKTHTCPPCPAPELLGGPSVFLFPPKPKDTLYITREPEVTCVVVDVSHEDPEVKFNWYVDGVEVHNAKTKPREEQYNSTYRVVSVLTVLHQDWLNGKEYKCKVSNKALPAPIEKTISKAKGQPREPQVYTLPPSREEMTKNQVSLTCLVKGFYPSDIAVEWESNGQPENNYKTTPPVLDSDGSFLLYSKLTVDKSRWQQGNVFSCSVMHEALHNHYTQKSLSLSPGK light: QSVLTQPPSVSVAPGQTARISCSGDNLGDKYANWYQQKPGQAPVLVIYDDIDRPSGIPERFSGSNSGNTATLTISGTQAEDEADYYCGSYDFFLGMIVFGGGTKLTVLGQPKAAPSVTLFPPSSEELQANKATLVCLISDFYPGAVTVAWKADSSPVKAGVETTTPSKQSNNKYAASSYLSLTPEQWKSHRSYSCQVTHEGSTVEKTVAPTECS | IC50 [12]: 0.0717 µg/mL; IC50 [13]: 0.041 µg/mL; IC50 [14]: 0.0307 µg/mL |
